{"source": "patent US20260224724A1", "about": "“GLYCOSYNTHASE VARIANTS FOR ANTIBODY-DRUG CONJUGATE ENGINEERING” (OBI Pharma, Inc., priority 2022, published 2026)", "molecules": {"B1": {"name": "EndoSd-D232M: D232M glycosynthase mutant of EndoSd from Streptococcus dysgalactiae subsp. Dysgalactiae, SEQ ID NO 1 (protein, listed as Streptococcus dysgalactiae)", "chain": "MGTILGTHHDSLISVKAEEKITQVSQTSTSIDDLHYLSENSKKEFKEELSKEKVPEKVKEILSKAQQANKQAQELAEMKVPDKIPMKPLNGPLYGGYFRTWHDKTSDPLEKDKVNSMGELPKEVDLAFVFHDWTKDYSLFWKELATKHVPKLNKQGTRVIRTIPWRFLAGGDNSGIAEDASKYPNTPEGNKALAKAIVDEYVYKYNLDGLDVMIEHDSIPKVNGEASDENLKRSIDVFEEIGKLIGPKGADKSRLFIMDSTYMADKNPLIERGAPYIDLLLVQVYGSQGEQGEFQNDTKSVTKTPEERWQGYSKYIRPEQYMIGFSFYEEKAGSGNLWYDINARKDEDTANGINDDITGTRAERYARWQPKTGGVKGGIFSYAIDRDGVAHQPKQIAEKDKQSVKNNRPLISEITDNIFHSNYSVSKTLKTVMLKDKAYDLIDEKDFPDKALREAVMAQVGTRKGDLERFNGTLRLDNPAIQSLEGLNKFKKLAQLDLIGLSRIIKLDQSVLPANMKPGKDPLETVLETYKKNGKEEPAIIPPVSLTVSGLTGLKELDLSGFDRETLAGIDAATLTSLEKVDISDNKLDLAPKTENRQIFDVMLSTVNNNAGISEQSIKFDNQKPAGNYPQTYGATNLQLPVRQEKIDLQHQLLFGTITNQGTLINSEADYKTYRNQKIAGRNFVDPDYPYNNFKVSHDNYTVKVTDSTLGTTTDKMLATDKEETYKVDFFSPTDKTKAVHTAKVIVGDEKTMMVNLAEGATVIKSENDENAQKVFNGIMEYNPLSFNNKSSIIFEIKDPSLAKYWRLFNDSSKDKKDYIKEAKLEVFTGQLNAEADVKTILEKPDNWVTVSTYSGEEKVFSHSLDNISAKYWRVTVDNKKDQYGYVSLPELQILGYPLPNADTIMKTVTVAKELSQQKDKFPQQLLDESTAKEAVVEASLNSKLFDTGVINTNVEALKNVVDECLAYEKNKETAFKATEDYRAAVNGVKAESVTVEEMAQLKDLIGKAAHLNSKIDAKLADREYDKDLLGLIGELTNITRTVKSFVKHHHHHH"}, "B2": {"name": "EndoSz-D234M: D234M glycosynthase mutant of EndoSz from Streptococcus equi subsp. Zooepidemicus Sz105, SEQ ID NO 2 (protein, listed as Streptococcus equi)", "chain": "MVAILAAQHDSLIRVKAEDKLVQTSPSVSAIDALHYLSENSKKEFKEELSKVEKAQPEKLKEIVSKAQQADKQAKTLAEMKVPEKIPMKPLKGPLYGGYFRTWHDKTSDPAEKDKVNSMGELPKEVDLAFVFHDWTKDYSLFWQELATKHVPTLNKQGTRVIRTIPWRFLAGGDHSGIAEDAQKYPNTPEGNKALAKAIVDEYVYKYNLDGLDVMIERDSIPKVNKEESKEGIERSIQVFEEIGKLIGPKGADKSRLFIMDSTYMADKNPLIERGAPYIDLLLVQVYGTQGEKGGFDNANHKAVDTMEERWESYSKYIRPEQYMVGFSFYEEKANSGNLWYDVNVEDDTNPNIGSEIKGTRAERYAKWQPKTGGVKGGIFSYGIDRDGVAHPKKNGPKTPDLDKIVKSDYKVSKALKKVMENDKSYELIDQKDFPDKALREAVIAQVGSRRGNLERFNGTLRLDNPDIKSLEGLNKLKKLAKLELIGLSQITKLDSSVLPENIKPTKDTLVSVLETYKNDDRKEEAKAIPQVALTISGLTGLKELNLAGFDRDSLAGIDAASLTSLEKVDLSSNKLDLAAGTENRQILDTMLATVTKHGGVSEKTFVFDHQKPTGLYPDTYGTKSLQLPVANDTIDLQAKLLFGTVTNQGTLINSEADYKAYQEQEIAGHRFVDSSYDYKAFAVTYKDYKIKVTDSTLGVTDHKDLSTSKEETYKVEFFSPINSTKPVHEAKIVVGEEKTMMVNLAEGATIIGGDADPTNAKKVFDGLLNNDTTTLSTSNKASIIFELKEPGLVKHWRFFNDSKISKADYIKEAKLEAFVGHLEDSSKVKDSLEKSTEWVTVSDYSGEAQEFSQPLNNIGAKYWRITIDNKKSQYGYVSLPELQIIGHRLPEAATVMTTMAAAEELSQQKDKFSQEQLKELEVKVAALKAALDNKMFNADTINASFADVKAYIDKLLADAAGKKTLGKATKEAQPVATDAKEKAESENPKADHHHHHH"}}, "key": {"Herceptin-GlcNAc": {"test_system": "Herceptin-GlcNAc", "experiment": "Transglycosylation of glycan-oxazoline to Herceptin-GlcNAc, monitored by HPLC", "type": "biochemical", "details": "for 1N-G2S2 (hemi-glycosylated) / 2N-G2S2 (fully glycosylated) / GlcNAc(F) (unreacted acceptor) / 1N-Glycan / 2N-Glycan / GlcNAc(F): acceptor Herceptin-GlcNAc; for 1N-G2S2 (hemi-glycosylated) / 2N-G2S2 (fully glycosylated) / GlcNAc(F) (unreacted acceptor): NSCT-oxa, best conditions (20:1 EndoSz-D234M, 150:1 EndoSd-D232M)", "method": "(§1) In general procedures, mAb-GlcNAc/mAb-GlucNAc-F (5 mg) was incubated with glycan-oxa with molar ratio 1:20 and 1:150 (mAb-GlcNAc:NSCT-oxa) by EndoSz-D234M (167 μg) or EndoSd-D232M (1002 μg), respectively, at 30° C. for 20 minutes in a MOPS buffer (50 mM, pH 6.7), to final volume 500 μL. There were some slight modifications according to experiment purposes and designs (see result section). HLPC was employed to monitor the transglycosylation efficiency.\n(§2) The glycosynthase activity was analyzed by HPLC (Waters e2695) using 2.1×150 mm UPLC Glycoprotein Amide Column (Waters) under two different buffers (Buffer A, ddH2O/0.3% v/v HFIP (1,1,1,3,3,3-Hexafluoro-2-propanol), 0.1% v/v TFA; Buffer B, ACN, 0.3% v/v HFIP, 0.1% v/v TFA) with the gradient as Table 4.\n(§3) After ensuring the baseline stability by injection water blank, the process was started by 2 μL sample injection. In the process duration (29 mins), the flow rate was 0.2 mL/min under the column temperature of 65° C. and sample tray temperature of 5° C."}, "Herceptin-GlcNAc-F": {"test_system": "Herceptin-GlcNAc-F", "experiment": "Transglycosylation of glycan-oxazoline to fucosylated Herceptin-GlcNAc-F, monitored by HPLC", "type": "biochemical", "details": "for GlcNAc(F) (unreacted acceptor) / 1N-G2S2 (hemi-glycosylated) / 2N-G2S2 (fully glycosylated, Herceptin-2N-G2S2F): NSCT-oxa, best conditions; for 1N-G2S2 (hemi-glycosylated) / 2N-G2S2 (fully glycosylated, Herceptin-2N-G2S2F) / 1N-Glycan / 2N-Glycan / GlcNAc(F): acceptor Herceptin-GlcNAc-F", "method": "as §1, §2, §3"}}, "data": [{"molecule": "B1", "values": [{"measurement": "Relative transglycosylation activity of EndoSd mutants", "setting": "Herceptin-GlcNAc; EndoSd-D232M set to 100%, NSCT-oxa donor, best conditions", "value": 100, "unit": "%"}, {"measurement": "1N-G2S2 (hemi-glycosylated)", "setting": "Herceptin-GlcNAc", "value": 2.11, "unit": "%"}, {"measurement": "2N-G2S2 (fully glycosylated)", "setting": "Herceptin-GlcNAc", "value": 97.88, "unit": "%"}, {"measurement": "GlcNAc(F) (unreacted acceptor)", "setting": "Herceptin-GlcNAc", "value": 0, "unit": "%"}, {"measurement": "Herceptin-2N-G2S2 generated", "setting": "Herceptin-GlcNAc; molar ratio 20:1 (NSCT-oxa/antibody), final condition of EndoSz-D234M", "value": 46.06, "unit": "%"}, {"measurement": "GlcNAc(F) (unreacted acceptor)", "setting": "Herceptin-GlcNAc-F", "value": 0, "unit": "%"}, {"measurement": "1N-G2S2 (hemi-glycosylated)", "setting": "Herceptin-GlcNAc-F", "value": 3.17, "unit": "%"}, {"measurement": "2N-G2S2 (fully glycosylated, Herceptin-2N-G2S2F)", "setting": "Herceptin-GlcNAc-F", "value": 94.75, "unit": "%"}]}, {"molecule": "B2", "values": [{"measurement": "Relative transglycosylation activity of EndoSz mutants", "setting": "Herceptin-GlcNAc; EndoSz-D234M set to 100%, NSCT-oxa donor, best conditions", "value": 100, "unit": "%"}, {"measurement": "1N-G2S2 (hemi-glycosylated)", "setting": "Herceptin-GlcNAc", "value": 4.8, "unit": "%"}, {"measurement": "2N-G2S2 (fully glycosylated)", "setting": "Herceptin-GlcNAc", "value": 91.85, "unit": "%"}, {"measurement": "GlcNAc(F) (unreacted acceptor)", "setting": "Herceptin-GlcNAc", "value": 3.35, "unit": "%"}, {"measurement": "1N-Glycan", "setting": "Herceptin-GlcNAc; glycan G0, 20:1", "value": 2.58, "unit": "%"}, {"measurement": "2N-Glycan", "setting": "Herceptin-GlcNAc; glycan G0, 20:1", "value": 96.50, "unit": "%"}, {"measurement": "GlcNAc(F)", "setting": "Herceptin-GlcNAc; glycan G0, 20:1", "value": 0.91, "unit": "%"}, {"measurement": "1N-Glycan", "setting": "Herceptin-GlcNAc; glycan G2, 20:1", "value": 4.52, "unit": "%"}, {"measurement": "2N-Glycan", "setting": "Herceptin-GlcNAc; glycan G2, 20:1", "value": 94.87, "unit": "%"}, {"measurement": "GlcNAc(F)", "setting": "Herceptin-GlcNAc; glycan G2, 20:1", "value": 0.61, "unit": "%"}, {"measurement": "1N-Glycan", "setting": "Herceptin-GlcNAc; glycan M3 (40eq)", "value": 6.51, "unit": "%"}, {"measurement": "2N-Glycan", "setting": "Herceptin-GlcNAc; glycan M3 (40eq)", "value": 92.37, "unit": "%"}, {"measurement": "GlcNAc(F)", "setting": "Herceptin-GlcNAc; glycan M3 (40eq)", "value": 1.11, "unit": "%"}, {"measurement": "GlcNAc(F) (unreacted acceptor)", "setting": "Herceptin-GlcNAc-F", "value": 1.72, "unit": "%"}, {"measurement": "1N-G2S2 (hemi-glycosylated)", "setting": "Herceptin-GlcNAc-F", "value": 4.00, "unit": "%"}, {"measurement": "2N-G2S2 (fully glycosylated, Herceptin-2N-G2S2F)", "setting": "Herceptin-GlcNAc-F", "value": 94.29, "unit": "%"}, {"measurement": "1N-Glycan", "setting": "Herceptin-GlcNAc-F; glycan type G0F", "value": 2.45, "unit": "%"}, {"measurement": "2N-Glycan", "setting": "Herceptin-GlcNAc-F; glycan type G0F", "value": 97.55, "unit": "%"}, {"measurement": "GlcNAc(F)", "setting": "Herceptin-GlcNAc-F; glycan type G0F", "value": 0.00, "unit": "%"}, {"measurement": "1N-Glycan", "setting": "Herceptin-GlcNAc-F; glycan type G2F", "value": 2.64, "unit": "%"}, {"measurement": "2N-Glycan", "setting": "Herceptin-GlcNAc-F; glycan type G2F", "value": 97.14, "unit": "%"}, {"measurement": "GlcNAc(F)", "setting": "Herceptin-GlcNAc-F; glycan type G2F", "value": 0.21, "unit": "%"}, {"measurement": "1N-Glycan", "setting": "Herceptin-GlcNAc-F; glycan type M3F", "value": 4.95, "unit": "%"}, {"measurement": "2N-Glycan", "setting": "Herceptin-GlcNAc-F; glycan type M3F", "value": 94.44, "unit": "%"}, {"measurement": "GlcNAc(F)", "setting": "Herceptin-GlcNAc-F; glycan type M3F", "value": 0.62, "unit": "%"}]}]}
